Results as given in the DeepSol protein solubility set.

Assay: soluble on expression in E. coli; label from the status in PepcDB or PDB records

Sequence	soluble on expression in E. coli
MVYLYKKGVGMNEQSQAKSPEALRAMVAGTLANFQHPTLKHNLTTLKALHHVAWMDDTLHVELVMPFVWHSAFEELKEQCSAELLRITGAKAIDWKLSHNIATLKRVKNQPGINGVKNIIAVSSGKGGVGKSSTAVNLALALAAEGAKVGILDADIYGPSIPTMLGAENQRPTSPDGTHMAPIMSHGLATNSIGYLVTDDNAMVWRGPMASKALMQMLQETLWPDLDYLVLDMPPGTGDIQLTLAQNIPVTGAVVVTTPQDIALIDAKKGIVMFEKVEVPVLGIVENMSVHICSNCGHHEPIFGTGGAEKLAEKYHTQLLGQMPLHISLREDLDKGTPTVISRPESEFTAIYRQLADRVAAQLYWQGEVIPGEISFRAVLEHHHHHH	not soluble
MVYRKVTISTKVFENTNAIVAWVSGRPVLLSKYEGKYYAMDAVCGHMGCAILDKVEGKEAVCPAHRARYDVTTGKKTADAVIRPEVKCEYNEASDTLKVYPVRENNGFLEVDMP	not soluble
MWDKRELTDLAIISAIGIDRTNDSNYVLHLQIINPGNVAGGLQGGGAGDRPPVSVYSIEGNNITEALRKASMKVSRRLYFAHTNLVVINEKLAKEEGLDFVLDNLDRDTEFRTTATFVVAHKTKAENIVKILTPIDKIPSNKVNKTLDFTEAQYGRVVKINIQDVLKTLAANTMAPVIPGYMMIGDDKKGVSMENTQATDPKAILQADGLAVFDKAGYLKYWLEDDESVGAVWLMNKIQHTFINADWGKTKDAVSLQVTHQDTKLVPKMRNGRPYIHVKVSVEGIIDAVKYPFQLSDPKVLAAIEKALNKELEKEISHTVKKIKKNKIDFIGFGDTIYRKYPEQWEKMKDTWDKEYLPELPIDVKAETYIRRTGLRNNPIKHQFKDDLEHHHHHH	not soluble
MWITQEITPYLRKEYTIEAKLLDVRSEHNILEIFKSKDFGEIAMLNRQLLFKNFLHIESELLAHMGGCTKKELKEVLIVDGFDLELAHQLFKYDTHIDFVQADEKILDSFISFFPHFHEVKNNKNFTHAKQLLDLDIKKYDLIFCLQEPDIHRIDGLKRMLKEDGVFISVAKHPLLEHVSMQNALKNMGGVFSVAMPFVAPLRILSNKGYIYASFKTHPLKDLMTPKIEALTSVRYYNEDIHRAAFALPKNLQEVFKDNIKS	soluble
MWKNGAMRGCNKETGEFLGPSRSQQRRTALEVLVLSEKLAALTPAQLAKLPIPERLLPHITETKRITSHIARKRQLAFLAKQMRREDDTTLEAIREKLNASGIQAQREVATLHRTEQWRKRLLEEGDSALTELLNQYPQADCGKLRQLLRNSKTEQARNKAPQAFRELYQVLHGLIITQNSDNQHQTPQ	soluble
MWKRLCAGLSCRKFINQVTMTSVNKNRKSRDENEMAKYNEKELADTSKFLSFVLRHKPEAIGIVLDREGWADIDKLILCAQKAGKRLTRALLDTVVATSDKKRFSYSSDGRCIRAVQGHSTSQVAISFAEKTPPQFLYHGTASRFLDEIKKQGLIAGERHYVHLSADEATARKVGARHGSPVILTVKAQEMAKRGLPFWQAENGVWLTSTVAVEFLEWLEHHHHHH	not soluble
MWLEKFKNKNKETKYRYYEKYKDPLTAKWRRVSVVLNKNGKQSQKEAQRLLNERIEAKLNDKTPTTLKSLTFHVACDEWFQSYIKTSGSKRTTIKTKLSKLNTLKKFVDEDILINKITLSYAQQVFDEMDNKGYVYQVNKDALSIFKNVFEYTRRIYKLQDLEFLKDITLNKRIKSYDEVKAKRNKYLELNEIQSIIKDINTKAQKMHSGIHKRFYLFVALMTEFQALNGMRIGEMLAIQNEDIDFDNKSLNINGTIHWFHDESGGFGVKDTTKTESSYRTIGLSSRSCEILKKAILENKKDSKWNDGYLNRNFVFTNHKGNPMQTERFNKILREAAKDVGIDKEVSSHILRHSHISLLSQQGVSLKAIMDRVGHSDHRTTLSIYSHVTEQMDKDMMNKLEQVKLG	not soluble
MWPPQGVPMSTPGSSAGHMPLGAGAASFPGQMNGPPQHPGMQYSGQMQQLPYGQMEGNHAMYDQRIMGQRAAGRPGMMPDYPQMPMGQTPGNTMMRMPVQYPSGPSQMAGHPHMQQMQYGHMMRAPPVSVYGQMNNAQQYAVTAHPNPVPQPYYHPEVRQLYETTAGYIVDRELLAEGHVTPGSNGVEAMLTHDASDFLKVSPQTDVLFSIWPVTKSNDPNIQYEVYINQKSVMNSHMQVKSIFIKDFLISGMNSIHIVYNGPQQMYKYACEFVTRKSVIELRKILIQKRVIEGQQLATQQKQQYMQMANKRQAGFYPVSLNCVLSKKRMFTPAKHHECKKIFDLAQLINANKGMTRYFCQTCNAYFKFEDITADYFLLNFLQSIPAGVNDLIVEKTGVVRSGDVEDVKPKRGKKKTDNDANGNGIKRIKSEIIVKQETFTDMHGRNVPFSPMPMPGSVPPDWTRLQSPSFSMQSPNKVQLGPATPATPGMVFQNPASAGSMLNMSSPRQTMIPGMHPMMPPHDVTMRSGSAPYTPESVKNDKNDELLMHIEGLYVCDVPILENEQLTVRYMDGTKDLCFEDSMVYEFAESPKHQQQIDGPPQTLMAPGSTASSSGSTFTPPFDDIHLGNRPSH	not soluble
MWQPATERLQVTYLGKVSTTGMQFLSGCTEKPVIELWKKHTLAREDVFPANALLEIRPFQVWLHHLDHKGEATVHMDTFQVARIAYCTADHNVSPNIFAWVYREINDDLSYQMDCHAVECESKLEAKKLAHAMMEAFRKTFHSMKSDGRIHSNSSSEEVSQELESDDG	soluble
MWRAKKPTLERRSTDGRRSSIVDWINGLSDNNNYKSDHWVEKHDEGCERMTRNGSVCAVEESEPDVPTQHREVLLTKLKIEIKNIMAEHGAKKYLNLNSPYVTSLCIAVDACIMDGLRRRLLTLFNSPSSMSLLQIIAKSNGPAQQVLDQTREIEELRTSAIPVHLIWIREALYLKSLSTIINHFIDSKSVRRYYDNSALLLDPVKGRLVATLMMAPCMVTYRRMSNRIEQEATAEELVEGATRGSTSTVPSRPPLSKIKKIHFLDNPSSYMSLQKFYDGNLSLKWVPNQLMHASSQPSSGHSNNGEFTNIWKNTINIEMQDIIYIHLHQKDEISPTCLTFVNCEGVQSAPFQLPAGQHSIAFLSSLETGLAPLLRLDPPLWVGTTKEKILPRLRKRSTAVANPAMLDYVFRLVRTSGVEPAPEDIEDPLAPTSHSPPIHDNCVSLPNSPYIVDNVDSIVNFQIGTACQSMRNQIMARAFYGWLTYVRHLRTIRTHLLHLVDTKTLICDDDCDPVDEKFWKQARAEPTEENEKEFLKRVYWRGIEGINTKEVRRMAWPYLLGLFEWNESPESRLEQFTSQYWQDIEEWRVLEAEVRRRDEEAFRAARARKAASPVREESCDVFEDPNEPTCSQHYDRENLITLFRANLHRIDKDVERCDRNLMFFSNKDNLESLRRVMYTYVRRNLEEGYTQGMCDLLAPLLVTFEDEALTLECFSLLMLRQRGKFPQRPGMSKCLLNLRSLIQVVDPQIYALISDIDYAQALSFAFRWFLLDFKRELSYECTYKVWEVIWAAQRLRITDDFAIFFGLATITNYHDVLITNNFDYTDMIKFFNEMAERHDCSRLLSSARTHVKCLQNLVQHLK	soluble
MWRRSLTESHSNELRLELTSRIVSAYLSRNVIAPSELPHLIQQTYGSLGKTSEPTKTPATVEEQRPAVPIKKSVTDDFIVCLEDGKSFKSLKRHLMAKYALTPEQYREKWKLPADYPMVAPNYARKRSELARATGLGKKSAANLSPSLQAVRSA	not soluble
MWYHRLSHLHSRLQDLLKGGVIYPALPQPNFKSLLPLAVHWHHTASKSLTCAWQQHEDHFELKYANTVMRFDYVWLRDHCRSASCYNSKTHQRSLDTASVDLCIKPKTIRLDETTLFFTWPDGHVTKYDLNWLVKNSYEGQKQKVIQPRILWNAEIYQQAQVPSVDCQSFLETNEGLKKFLQNFLLYGIAFVENVPPTQEHTEKLAERISLIRETIYGRMWYFTSDFSRGDTAYTKLALDRHTDTTYFQEPCGIQVFHCLKHEGTGGRTLLVDGFYAAEQVLQKAPEEFELLSKVPLKHEYIEDVGECHNHMIGIGPVLNIYPWNKELYLIRLFKEKQNTVNRQWNSSLQCDIPERILTYRHFVSGTSIEHRGSLI	not soluble
MYCDHFGFSEHPFALTPNPAFLFLSSRHQEAFAHLLYGIDTRAGFIELSGEVGTGKTTVIRTFLNQLDPETHRTALVFNPTVSPLGLLQGIIREFGLPGTSTEKSELLETLNRFLLDENRAGHTVVLVIDEAQNLSPEVLEQIRLISNLETERDKLIQIVLVGQPELRHLLARQELRQLDQRITVRYHLEPMGLDDTKNYIRHRIRIAAGGREPVIFSAGAVKKIFGFSGGLPRLINAACDRALLLAYTTEAREVSPAMAAAAIADVATEARPPSPSRRFAVAAALILVAALGAGTFAVTRKGGESLPSASPPPTEPAASGEQPLKRTAALAGLAAVPEKDNLSAAVNTILRSWQAPPVASSPSPADLRSLARERGLTVTELSGTLNDLARLDTPALLHITLPQGGKRLVALTSLDKGHIGIDPPIAGHSTLTGGELSTLWSGRASVIWKNFHGIPSRLKPGGRSKAVGQLQELLKGAGYYAGRISGTYDTVTQEAIRSFQTAEGLDADGRTGEKTLLLLYRRAGGFFPPGLTQGKTAARTEAGDRSRGKVAQTRSNGEQSRLEHHHHHH	not soluble
MYCKPHRPGNTPQVPDNKGKCTRLVDYLSKESQVERPYYDNFFSQQKDYVIPLTVKNHIDNNHRTLKSNDDKFYMLSINPSGDEQRHLIERVTGRKVGEFSELTPGEQESVLAQMKKFTRECMDEYARNFYREKIKSGDDLVWYGRVETERHYKNDDPEVKAGRVKAGDKKPGLQLHVHVIVSRMDRTQTVSLSPLSKSRGNRQILEGREVVVGFDRSQWSSRCASRFNQSYDYFPNYYSRDESLRKYSENWQAKNELKNEAVSKLKQEVLKGELKEERRLYANTFRIYRFVVNPRKAIIQELKRLGTDLLSGRDL	not soluble
MYETYHSGWIETITGSMFSGKSEELIRRLRRGIYAKQKVVVFKPAIDDRYHKEKVVSHNGNEIEAINISTAQEILNHKLEEVNVIGIDEVQFFEDDIVNIVEKLAENGHRVIVAGLDMDFRGEPFKPMPKLLAVSEHITKLQAVCSVCGSPSSRTQRLINGEPAKVDDPIILVGANESYEPRCRAHHIVAPSENEKEEMLEHHHHHH	not soluble
MYFVDRKKLEETLSYMEQMLDRYKAEERWDEPLRQLALERIAHIVIEAVLDVGNAMIDGFIMRDPGSYNDIIDILADEQVISPADADRLKAFIAHRKMLVHEYARVDHAKLLADLNEHLPALEAYPKAVRAYLENELGPVSAFRN	soluble
MYHHGFHYYSTNNSHSYSRTRNPPKSWNLGPHELGSSTDPENRAMQESIINSVSEQTLQSWIDFREEINKKNLLLRNKLKIPSEKIDDKYHTFPEKKQSDYADAEIYAGSDASQPSRNEYDRSKYVLNRKVRCAPTEIITDSSQSPGASPSSDQIFIDDSQPSTTKRRWVISEPDDNSDKHVSSSENHQQREKIISPTEKTLQKSTSSNSSPTLKLFVTVPSSSNQECILHKYGHCIAPQICPFAHDGVVRKLEKKTVTAPFWQRKLPNISLCPGYPTLKCWDHKCGKRHILYPSDNI	not soluble
MYIILVYDIGEKRVGKMLKLCRKYLNWIQNSVFEGEISEVKLLELKSRAAGIMEKEEDSLIIFSSRQERWLEKEIIGKERSATDIFL	not soluble
MYMNVLIISDSHGLEEELQTIAKRHEAEVDLMIHCGDSELETRHPALEPYAVVKGNCDFAGDFKDELLLTAGSRKILVTHGHLHGIKQTLLNVYYRAEELGADVICFGHSHIAGSEVLRGKLMINPGSIRLPRVRRTESYAILTLENDAATVRFYDQAGNEIEDLQNRVTLLEHHHHHH	not soluble
